Laboratory results from article PMC3115021, “Dynamics of Cdk1 Substrate Specificity during the Cell Cycle” (Molecular Cell, 2011).

B1: CDH1: protein purified using the baculovirus system, tested as Cdk1 substrate (protein, UniProt P53197 1-566, looked up)
APC/C activator protein CDH1: MSTNLNPFMNNTPSSSPLKGSESKRVSKRPISSSSSASLLSSPSRRSRPSTVYGDRYIPSRTDIDFNSIVSISSMASVPALNPSSTEDQVEYQKERQAHETYNTLLKNELFGEMLSKDTVGSESSIDRIKNTRPSTRGNVHAENTTRHGYELERVSTPPPEAAGLEEFSPHSTPVTPRRLFTSQQDEITRPSSNSVRGASLLTYQQRKGRRLSAASLLQSQFFDSMSPVRPDSKQLLLSPGKQFRQIAKVPYRVLDAPSLADDFYYSLIDWSSTDVLAVALGKSIFLTDNNTGDVVHLCDTENEYTSLSWIGAGSHLAVGQANGLVEIYDVMKRKCIRTLSGHIDRVACLSWNNHVLTSGSRDHRILHRDVRMPDPFFETIESHTQEVCGLKWNVADNKLASGGNDNVVHVYEGTSKSPILTFDEHKAAVKAMAWSPHKRGVLATGGGTADRRLKIWNVNTSIKMSDIDSGSQICNMVWSKNTNELVTSHGYSKYNLTLWDCNSMDPIAILKGHSFRVLHLTLSNDGTTVVSGAGDETLRYWKLFDKPKAKVQPNSLIFDAFNQIR
B2: EXO84: purified yeast protein tested as Cdk1 substrate (protein, UniProt P38261 1-753, looked up)
Exocyst complex component …: MVEFSLKKARNNWKHVKKSASSPAKQKTPPSPAKPKQKTKKNPYSDLKDPATSYTLPTINARERSRVATSMQRRLSIHNTNYAPPTLDYSMPLPDMPNMIVPNDNVDSSHNNSSFTTENESVSSKGPSNSLNLSTADLSLNDSSYNKVPARSAMRNTVNPSGSNDPFNNSTSLRKMLANPHFNAKDFVHDKLGNASAITIDKFTSNLTDLSIQVQEEVKLNINKSYNEIMTVNNDLNVAMLELKRVRANINDLNEVLDQCTKIAEKRLQLQDQIDQERQGNFNNVESHSNSPALLPPLKAGQNGNLMRRDRSSVLILEKFWDTELDQLFKNVEGAQKFINSTKGRHILMNSANWMELNTTTGKPLQMVQIFILNDLVLIADKSRDKQNDFIVSQCYPLKDVTVTQEEFSTKRLLFKFSNSNSSLYECRDADECSRLLDVIRKAKDDLCDIFHVEEENSKRIRESFRYLQSTQQTPGRENNRSPNKNKRRSMGGSITPGRNVTGAMDQYLLQNLTLSMHSRPRSRDMSSTAQRLKFLDEGVEEIDIELARLRFESAVETLLDIESQLEDLSERISDEELMLLNLISLKIEQRREAISSKLSQSILSSNEIVHLKSGTENMIKLGLPEQALDLFLQNRSNFIQDLILQIGSVDNPTNYLTQLAVIRFQTIKKTVEDFQDIFKELGAKISSILVDWCSDEVDNHFKLIDKQLLNDEMLSPGSIKSSRKQIDGLKAVGLDFVYKLDEFIKKNSDKIR
B3: FAR1: Cdk1 inhibitor Far1, tested as Cdk1 substrate (protein, UniProt P21268 1-830, looked up)
Cyclin-dependent kinase …: MKTPTRVSFEKKIHTPPSGDRDAERSPPKKFLRGLSGKVFRKTPEFKKQQMPTFGYIEESQFTPNLGLMMSKRGNIPKPLNLSKPISPPPSLKKTAGSVASGFSKTGQLSALQSPVNITSSNKYNIKATNLTTSLLRESISDSTTMCDTLSDINLTVMDEDYRIDGDSYYEEDSPTFMISLERNIKKCNSQFSPKRYIGEKCLICEESISSTFTGEKVVESTCSHTSHYNCYLMLFETLYFQGKFPECKICGEVSKPKDKDIVPEMVSKLLTGAGAHDDGPSSNMQQQWIDLKTARSFTGEFPQFTPQEQLIRTADISCDGFRTPRLSNSNQFEAVSYLDSPFLNSPFVNKMATTDPFDLSDDEKLDCDDEIDESAAEVWFSKTGGEHVMVSVKFQEMRTSDDLGVLQDVNHVDHEELEEREKEWKKKIDQYIETNVDKDSEFGSLILFDKLMYSDDGEQWVDNNLVILFSKFLVLFDFEEMKILGKIPRDQFYQVIKFNEDVLLCSLKSTNIPEIYLRFNENCEKWLLPKWKYCLENSSLETLPLSEIVSTVKELSHVNIIGALGAPPDVISAQSHDSRLPWKRLHSDTPLKLIVCLNLSHADGELYRKRVLKSVHQILDGLNTDDLLGIVVVGRDGSGVVGPFGTFIGMINKNWDGWTTFLDNLEVVNPNVFRDEKQQYKVTLQTCERLASTSAYVDTDDHIATGYAKQILVLNGSDVVDIEHDQKLKKAFDQLSYHWRYEISQRRMTPLNASIKQFLEELHTKRYLDVTLRLPQATFEQVYLGDMAAGEQKTRLIMDEHPHSSLIEIEYFDLVKQQRIHQTLEVPNL
B4: FIN1: spindle-stabilizing protein, tested as Cdk1 substrate (protein, UniProt Q03898 1-291, looked up)
Filament protein FIN1: MSNKSNRRSLRDIGNTIGRNNIPSDKDNVFVRLSMSPLRTTSQKEFLKPPMRISPNKTDGMKHSIQVTPRRIMSPECLKGYVSKETQSLDRPQFKNSNKNVKIQNSDHITNIIFPTSPTKLTFSNENKIGGDGSLTRIRARFKNGLMSPERIQQQQQQHILPSDAKSNTDLCSNTELKDAPFENDLPRAKLKGKNLLVELKKEEEDVGNGIESLTKSNTKLNSMLANEGKIHKASFQKSVKFKLPDNIVTEETVELKEIKDLLLQMLRRQREIESRLSNIELQLTEIPKHK

Assays:
Clb4-Cdk1 = biological target: T1, Clb4-Cdk1 (Saccharomyces cerevisiae, UniProt P00546+P24871); experiment: Peptide kinetics with the model substrate (data not shown); assay type: biochemical
T1 construct: made in house
Description: (§1) The four major cyclin-Cdk1 complexes used in our experiments seem sufficient for describing
(§2) the general dynamic changes of Cdk1 specificity during the cell cycle, as the rest of the cyclins,
(§3) Clb1 and Clb4 (Grandin and Reed, 1993) as well as Cln3 and Clb6 (Cross et al., 2002; Tyers et
(§4) al., 1993) are less abundant and therefore minor contributors to the total concentration of
(§5) activated Cdk1, and most likely would not yield significant changes to the general model. In
(§6) an intermediate KM (210 μM) for the model substrate (data not shown). However, due to poor
(§7) purification yields, this kinase was excluded from detailed analysis. Additionally, the other G1
(§8) towards the peptide substrate (KM > 1 mM, data not shown).
(§9) Our findings have raised an intriguing question of how cyclins can change the specificity
(§10) of the Cdk1 active site, so that its ability to bind and phosphorylate the consensus site motif is
(§11) altered. These cyclin-specific effects could be due to specific conformational changes induced by
(§12) cyclin in the Cdk1 molecule, resulting in altered accessibility and configuration of its active site.
(§13) of Swe1 to phosphorylate different cyclin-Cdk1 complexes at the active site-gating Y19 residue.
(§14) The other gradually changing feature, the relative differences in RXL-dependent docking
(§15) mechanisms among the B-type cyclin-Cdk1s, could also be due to different specific […]

Cln1-Cdk1 = Cln1-Cdk1 (Saccharomyces cerevisiae, UniProt P00546+P20437); experiment: as above; assay type: biochemical
Cln1-Cdk1, sequence (P00546 2-298 limits assumed): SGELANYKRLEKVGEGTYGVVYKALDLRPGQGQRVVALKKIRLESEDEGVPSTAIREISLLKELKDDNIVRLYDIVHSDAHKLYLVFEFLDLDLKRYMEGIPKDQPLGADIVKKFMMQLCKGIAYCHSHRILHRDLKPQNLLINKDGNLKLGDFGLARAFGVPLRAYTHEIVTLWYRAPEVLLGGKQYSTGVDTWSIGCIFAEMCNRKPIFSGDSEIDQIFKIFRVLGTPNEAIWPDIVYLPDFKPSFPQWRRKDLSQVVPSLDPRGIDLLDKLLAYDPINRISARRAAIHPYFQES
Cln1-Cdk1, sequence (P20437 whole entry partner): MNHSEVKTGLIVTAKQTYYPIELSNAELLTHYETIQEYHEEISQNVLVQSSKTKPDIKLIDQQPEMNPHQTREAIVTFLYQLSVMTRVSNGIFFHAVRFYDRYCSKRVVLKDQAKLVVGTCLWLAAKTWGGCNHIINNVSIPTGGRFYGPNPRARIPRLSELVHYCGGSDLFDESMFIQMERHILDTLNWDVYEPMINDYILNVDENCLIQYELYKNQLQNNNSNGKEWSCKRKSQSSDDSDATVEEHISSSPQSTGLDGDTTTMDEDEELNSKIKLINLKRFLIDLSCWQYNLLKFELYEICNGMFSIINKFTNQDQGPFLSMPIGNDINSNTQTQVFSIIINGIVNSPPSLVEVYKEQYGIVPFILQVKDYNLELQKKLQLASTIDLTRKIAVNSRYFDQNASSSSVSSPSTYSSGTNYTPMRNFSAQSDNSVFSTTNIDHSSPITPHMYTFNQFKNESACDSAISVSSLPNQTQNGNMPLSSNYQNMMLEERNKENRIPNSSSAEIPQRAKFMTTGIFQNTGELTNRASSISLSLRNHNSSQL
Cln1-Cdk1, sequence (P20486 whole entry partner): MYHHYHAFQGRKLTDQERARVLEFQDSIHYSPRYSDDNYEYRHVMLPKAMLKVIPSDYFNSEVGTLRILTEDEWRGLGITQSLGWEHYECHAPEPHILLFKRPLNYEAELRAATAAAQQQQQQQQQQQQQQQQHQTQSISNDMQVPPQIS
Description: as §1, §2, §3, §4, §5, §6, §7, §8, §9, §10, §11, §12, §13, §14, §15

Clb2-Cdk1 [1] = biological target: T2, Clb2-Cdk1 (Saccharomyces cerevisiae, UniProt P00546+P24869); settings: higher specificity for mitotic Clb2-Cdk1 than S phase Clb5-Cdk1; ref Loog and Morgan, 2005; cited from earlier work
T2 construct: We purified the four cyclin-Cdk1 complexes from yeast; made in house; host or cells: S. cerevisiae strain DOM0077 (gal-CLB2-TAP, sic1 deleted); Cks1 from bacteria
T2 sequence (P00546 2-298 limits assumed): as the sequence (P00546 2-298 limits assumed) above
T2 sequence (P24869 2-491 partner limits assumed): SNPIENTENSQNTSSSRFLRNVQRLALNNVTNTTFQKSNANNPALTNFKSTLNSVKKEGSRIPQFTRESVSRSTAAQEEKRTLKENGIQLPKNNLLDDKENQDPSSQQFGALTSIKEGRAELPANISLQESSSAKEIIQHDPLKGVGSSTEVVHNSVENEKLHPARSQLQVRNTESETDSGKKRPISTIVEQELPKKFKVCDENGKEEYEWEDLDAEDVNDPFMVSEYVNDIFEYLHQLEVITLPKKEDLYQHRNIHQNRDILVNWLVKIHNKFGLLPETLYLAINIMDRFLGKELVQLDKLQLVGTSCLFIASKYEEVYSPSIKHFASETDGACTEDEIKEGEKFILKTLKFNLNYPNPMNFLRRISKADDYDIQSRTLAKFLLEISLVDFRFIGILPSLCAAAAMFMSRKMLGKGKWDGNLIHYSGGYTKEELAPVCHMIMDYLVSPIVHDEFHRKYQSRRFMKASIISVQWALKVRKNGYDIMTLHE
T2 sequence (P20486 whole entry partner): as the sequence (P20486 whole entry partner) above
Description: To study how different cyclins modulate the substrate specificity of Cdk1, we performed a quantitative analysis of yeast Cdk1 specificity in complex with each of four cyclins: the G1/S cyclin Cln2, the S phase triggering cyclin Clb5, the G2/M cyclin Clb3, and the mitotic cyclin Clb2. The cellular levels of these four cyclins peak in sequence over the course of the cell cycle (Figure 1A). We purified the four cyclin-Cdk1 complexes from yeast (Figure 1D) and analyzed their kinetic properties with a commonly used optimal model substrate for Cdk1, a peptide derived from the general substrate Histo ...

Clb5hpm-Cdk1 = biological target: T3, Clb5hpm-Cdk1 (Saccharomyces cerevisiae, UniProt P00546); experiment: Quantitative phosphorylation assay of T33-Sic1ΔC constructs and recombinant substrates; assay type: biochemical; settings: Table S2; purified protein substrate; relative values, not divided by [S]
T3 construct: made in house; host or cells: S. cerevisiae strain DOM0963 (gal-CLB5hpm-TAP, sic1 deleted); Cks1 from bacteria
T3 sequence (P00546 2-298 limits assumed): as the sequence (P00546 2-298 limits assumed) above
Method in brief: (§16)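 Yeast cyclin-Cdk1 complexes (1–10 nM, TAP-purified) phosphorylated 6His-T33-Sic1ΔC (other S/T-P sites mutated to Ala-Ala) or recombinant substrates at 0.5–2 μM, below KM, with 32P-γ-ATP. Initial velocities (≤10% turnover) from two or more time points, SDS-PAGE stopped; relative kcat/KM from v0 ratios.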

Clb2hpm-Cdk1 = biological target: T4, Clb2hpm-Cdk1 (Saccharomyces cerevisiae, UniProt P00546); experiment: as above; assay type: biochemical; settings: Table S2; purified protein substrate; relative values, not divided by [S]
T4 construct: made in house; host or cells: S. cerevisiae strain DOM0964 (gal-CLB2hpm-TAP, sic1 deleted); Cks1 from bacteria
T4 sequence (P00546 2-298 limits assumed): as above
Method in brief: as §16

Clb3hpm-Cdk1 = biological target: T5, Clb3hpm-Cdk1 (Saccharomyces cerevisiae, UniProt P00546+P24870); experiment: as above; assay type: biochemical; settings: Table S2; purified protein substrate; relative values, not divided by [S]
T5 construct: made in house; host or cells: S. cerevisiae strain MK0168 (gal-CLB3hpm-TAP, sic1 deleted); Cks1 from bacteria
Method in brief: as §16

Clb5-Cdk1 = biological target: T6, Clb5-Cdk1 (Saccharomyces cerevisiae, UniProt P00546+P30283); experiment: as above; assay type: biochemical; settings: Table S2; purified protein substrate; relative values, not divided by [S]
T6 construct: We purified the four cyclin-Cdk1 complexes from yeast; made in house; host or cells: S. cerevisiae strain DOM0076 (gal-CLB5-TAP, sic1 deleted); Cks1 from bacteria
T6 sequence (P00546 2-298 limits assumed): as above
T6 sequence (P30283 whole entry partner): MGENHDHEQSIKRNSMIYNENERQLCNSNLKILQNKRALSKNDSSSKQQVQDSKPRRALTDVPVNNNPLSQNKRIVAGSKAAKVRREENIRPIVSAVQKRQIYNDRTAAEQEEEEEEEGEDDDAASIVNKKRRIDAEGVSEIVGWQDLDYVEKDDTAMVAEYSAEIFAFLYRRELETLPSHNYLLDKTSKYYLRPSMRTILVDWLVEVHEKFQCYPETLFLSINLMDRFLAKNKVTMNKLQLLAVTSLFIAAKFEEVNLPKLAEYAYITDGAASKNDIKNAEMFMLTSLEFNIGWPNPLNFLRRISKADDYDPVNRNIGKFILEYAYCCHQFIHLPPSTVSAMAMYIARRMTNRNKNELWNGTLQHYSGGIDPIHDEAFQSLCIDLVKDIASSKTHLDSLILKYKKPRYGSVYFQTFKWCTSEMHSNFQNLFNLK
T6 sequence (P20486 whole entry partner): as the sequence (P20486 whole entry partner) above

Cln2-Cdk1 = biological target: T7, Cln2-Cdk1 (Saccharomyces cerevisiae, UniProt P00546+P20438); experiment: as above; assay type: biochemical; settings: Table S2; purified protein substrate; relative values, not divided by [S]
T7 construct: We purified the four cyclin-Cdk1 complexes from yeast; made in house; host or cells: S. cerevisiae strain DMY305 (galactose-induced); Cks1 from bacteria
T7 sequence (P00546 2-298 limits assumed): as the sequence (P00546 2-298 limits assumed) above
T7 sequence (P20438 whole entry partner): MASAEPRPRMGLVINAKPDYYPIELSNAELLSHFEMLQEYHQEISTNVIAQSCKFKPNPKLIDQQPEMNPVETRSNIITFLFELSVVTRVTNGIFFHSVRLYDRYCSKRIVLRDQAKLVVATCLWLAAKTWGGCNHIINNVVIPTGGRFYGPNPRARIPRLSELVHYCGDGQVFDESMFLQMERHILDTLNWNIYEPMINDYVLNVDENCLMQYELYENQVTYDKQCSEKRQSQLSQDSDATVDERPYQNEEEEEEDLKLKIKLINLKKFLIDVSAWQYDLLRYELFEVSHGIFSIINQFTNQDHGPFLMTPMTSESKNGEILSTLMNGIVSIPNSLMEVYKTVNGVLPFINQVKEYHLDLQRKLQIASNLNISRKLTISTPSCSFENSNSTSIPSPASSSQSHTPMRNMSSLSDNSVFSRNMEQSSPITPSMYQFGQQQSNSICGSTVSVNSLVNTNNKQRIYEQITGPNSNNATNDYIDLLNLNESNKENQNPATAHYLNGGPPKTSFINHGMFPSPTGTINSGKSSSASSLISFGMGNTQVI
T7 sequence (P20486 whole entry partner): as the sequence (P20486 whole entry partner) above

Clb2-Cdk1 [2] = biological target: T2, Clb2-Cdk1; experiment: as above; assay type: biochemical; settings: Table S2; purified protein substrate; relative values, not divided by [S]
Clb3-Cdk1 = biological target: T8, Clb3-Cdk1 (Saccharomyces cerevisiae, UniProt P00546+P24870); experiment: as above; assay type: biochemical; settings: Table S2; purified protein substrate; relative values, not divided by [S]
T8 construct: We purified the four cyclin-Cdk1 complexes from yeast; made in house; host or cells: S. cerevisiae strain DOM0957 (gal-CLB3-TAP, sic1 deleted); Cks1 from bacteria
T8 sequence (P00546 2-298 limits assumed): as the sequence (P00546 2-298 limits assumed) above
T8 sequence (P24870 whole entry partner): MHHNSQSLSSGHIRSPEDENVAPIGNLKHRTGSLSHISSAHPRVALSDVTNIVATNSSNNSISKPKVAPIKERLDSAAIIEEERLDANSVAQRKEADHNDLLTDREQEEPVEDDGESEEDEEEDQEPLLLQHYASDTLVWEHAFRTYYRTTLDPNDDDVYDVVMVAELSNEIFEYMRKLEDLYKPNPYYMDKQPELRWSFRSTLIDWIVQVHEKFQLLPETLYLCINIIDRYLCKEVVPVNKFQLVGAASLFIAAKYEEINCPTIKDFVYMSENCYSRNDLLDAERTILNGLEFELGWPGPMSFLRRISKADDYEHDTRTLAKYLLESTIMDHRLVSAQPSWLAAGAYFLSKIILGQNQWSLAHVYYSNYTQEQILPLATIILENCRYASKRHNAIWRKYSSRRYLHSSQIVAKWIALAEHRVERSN
T8 sequence (P20486 whole entry partner): as the sequence (P20486 whole entry partner) above

Molecule | Km (Clb4-Cdk1) [µM] | Km (Cln1-Cdk1) [µM] | specificity for Clb2-Cdk1 as compared with Clb5-Cdk1 (Clb2-Cdk1 [1]) | kcat/KM, Clb5hpm (Clb5hpm-Cdk1) [relative units] | kcat/KM, Clb2hpm (Clb2hpm-Cdk1) [relative units] | kcat/KM, Clb3hpm (Clb3hpm-Cdk1) [relative units] | kcat/KM, Clb5 (Clb5-Cdk1) [relative units] | kcat/KM, Cln2 (Cln2-Cdk1) [relative units] | kcat/KM, Clb2 (Clb2-Cdk1 [2]) [relative units] | kcat/KM, Clb3 (Clb3-Cdk1) [relative units]
PKTPKKAKKL [optimal model substrate for Cdk1, a peptide derived from the general substrate Histone H1] | 210 | > 1000 | about 20 fold |  |  |  |  |  |  | 
B1 |  |  |  | 0.006 | 0.023 | 0.008 | 0.025 | 0.016 | 0.035 | 0.024
B2 |  |  |  | 0.006 | 0.062 | 0.014 | 0.019 | 0.084 | 0.074 | 0.031
B3 |  |  |  | 0.003 | 0.033 | 0.008 | 0.115 | 0.042 | 0.029 | 0.031
B4 |  |  |  | 3.651 | 14.08 | 7.488 | 23.02 | 1.800 | 12.43 | 10.96
